The test concerns the target SARS-CoV-2 Spike glycoprotein (SARS-CoV-2) (UniProt P0DTC2). The test is described as follows: SPR. A general note: Surface plasmon resonance follows binding to a sensor surface in real time, without labels.

In turn, “DC-SIGN entire extracellular domain (ECD) (from UniProt Q9NNX6 59-404) (receptor)” came in with an SPR response without ligand (the pair that is blocked) of 2500 RU.

“L-SIGN entire extracellular domain (ECD) (from UniProt Q9H2X3 71-399) (receptor)” registered an SPR response without ligand (the pair that is blocked) of 2000 RU.

The values are drawn from article PMC11376147 (Chemical Science, 2024).
